# Results: the nanobody polyreactivity screen of Harvey et al. (2022)
# Test: yeast display, Sf9 membrane polyspecificity reagent, FACS + sequencing; frameworks hold sequencing errors
# Procedure, shortened: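 After 36–48 hours of galactose induction, yeast (Saccharomyces cerevisiae BJ5465) displaying a synthetic nanobody library were stained at 4 °C for 1 hour with 10% biotinylated, detergent-solubilized Sf9 membrane reagent. Streptavidin microbeads enriched the stained cells before FACS sorting into low and high (top ~1%) gates on anti-HA and streptavidin fluorescence. Each clone's polyreactivity label reflects its gate of origin.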
row,Sequence,polyreactivity (PSR sort gate)
1,QVQLVESGGGLVQAGGSLRLSCSASGRTFEHNCMGWSRQAHGKERELVASITSVGSTDYADSVKGRFTISRDNAKNTVYLQMNSLKPEDTAVYYCAKTLGSQNYDFDYWGQGTQVTVSS,low polyreactivity
2,QVQLEESGGGLVQAGGSLRLSCAASGIIFRGNAMGWYIQAPGKERELFAAIRFSGGSTYYADSVKGRFTISRDNAKNTVYLQMNSLKPEDTAVYYCAATRRRYGSTTSEYYYWGQGTQVTVSS,high polyreactivity
3,EVQLVESGGGLLQPGGSLRVSFAASGYIYSRYRMGWYRQAPGKGREFVAAISGGSSTNYADSVKGRFTISRDNSKNTVFLQMNSLRAEDTAVFYCADFKIDSDPRVYWGQGTQVTVSS,low polyreactivity
4,QVQLVESGGGLVQAGGSLRLSCAASGLTFHWYTMGGYRQAPGKERELVAAISSRGGSTYYADSVKGRFTISRDNAKNTDYLQMNSLKPEDTAVYYCAKARRVGFTPIYENWGQGTQVTVSS,high polyreactivity
5,QVKLVESGGGLVQAGGSLRLSCAASGRICLSYTMGWYRQAPGKERELVATIDSGVSTNYADSVKGRFTITRDNAKNTVYVQMNSLKPEDTAVYYGNADGFYSSHGYDYWGQGTQVTVSS,low polyreactivity
6,KVQLVESGGGLVQAGGSLRLTCAASGRIFPYYAMGWYRQAPGKERELVASIRYSAGNTYYADSVKGRFTISRDNAKNTVYLQMNSLKPEDTAVYYCWYTQNTLGNYWGQGTQVTVSS,low polyreactivity
7,QVQLVESGGGLDQAGGSLRLSCAASGRTFKPYAMGWYRQAPGKERELVARISGSGGSTYYADSVKGRFSISRDNAKNTVYLQMNSLKPEDTAVYYCATTPYYWFDYWGQGTQVTVSS,low polyreactivity
8,QVHRGESGGGLVQAGGSLRLSCPASGFIFRYYPMGWYRQAPGKESELVASISYSGGTTYYADSVKGRFTISRDNAKNTVYLQMNSLKPEDTAVYYCNVYSRTHYQTYTDDYWGQGTQVTVSS,high polyreactivity
9,QVQLVESGGGLVQAGGSLRLSCASSGRIFRVNGMGWYRQAPGKESELVATITGSGGSTYYADSVKGRFTISRDNAKNTVYLQMNSLKPEDTAVYYCAAVSYWPTDRYYSWGQGTQVTVSS,low polyreactivity
10,QVQLVESGGGLVQAGGSLRLSCASSGRTFRYYAMGWYRQAPGKERELVAAIRSGGITNYADSVKGRFTISRDNAKNTVYLQMNSLKPEDTAVYYCAVETPSTWFSGWGYDYDYWGQGTQVTVSS,high polyreactivity
11,QVQLVESGGGLDQAGGSLRLSCAASGIIFLSYAMGRYRQAPGKERELVAAIRSRGDSTYYADSVKGRFTNSRDNAKNTVYLQMNSLKPEDTAVYYCNARQRRYPYGYWGQGTQVTVSS,high polyreactivity
12,QVQLAESGACLVQAGGRLRLSCAASGRIFSFYAMGWYRQAPGKERELVITSGGDTNYADSVKGRFTISRDNAKNSVYLQMNSLKPEDTAVYYCNAEGDRSQPYNFDYWGQGTQVTVSS,low polyreactivity
13,QVQLVESGGGLVQAGGSIRLSCAASGFTFRSYTMGWYRQAPGKESELVAAITSRGTSTYYADSVKGRFTIPRDNAKNAVYLQMNSLKPEDTAVYYCNADGTRYAGDDYWGQGTQVTVSS,high polyreactivity
14,QVQLVESGGGLVQAGGSLRLSCAASGFTFSAYAMGWYRQAPGKERELVAAISTRGGSTRYADSVKGRFTISRDNAKNTVYLQMNSLKPADTAVYSCAADTRSFYRYDYWGQGTQVTVSS,high polyreactivity
15,QVQLLESGGGLVQAGGSLRLSCAASGSTFEANTMGWYSQAPGKDRELVASISSSGGSTNYADSVKGRFTISRDNAKNTVYLQMNRLKQEDTAVYYCAVRCTYARWNWRTADSSRDYWGQGTQVTVSS,low polyreactivity
16,QVQLVESGGGVVQAGGSLRLSCAASGSTFGYYTMGWNRQAPGKERELVAAISRSGCRTYYADSVKGRFTISRDNAMNAVYLHMTSLKPDYTAVYYCNADGTRYAGDDYWGQGSQVTVSS,high polyreactivity
17,QVQLVESGGGLVQAGGSLRLSCAASGSIFRPYAMGWYRQAPGKERELVAAISGSGGTTYYADSVKGRFTISRDNAKNTVYLQMNSLKTEETAVYYCAARNFSAFWLGGYDYWGQGTQVTVSS,low polyreactivity
18,QVQLVESGGGLVQAGGSLRLSCAASGFIFTRNVMGWYRQAPGKERELVAAISSGGRTYYADSVKGRFTISRDNAKNTVYLQMNRLKPEDTAVYYCSIVSKFTGDYGYWGQGTQVTVSS,high polyreactivity
19,QFQLVESGGGLVQAGGILRLSCAASGRIFKYYAMGWYRQEPGKERELVAAISRGGSTYYADSVKGRFTISRDNAKNTVYLQMNSLKPEDSAVYYCNAYRHGYVAYRRYDYWGQGTQVTVSS,high polyreactivity
20,QVQLVESGGGLVQAGGSLRLSCAASGRTYYYNAMGWYRQAPGKERELVAVISWDDGSTYYADSVKGRFTISRDKAMNSVYLQLNSLKPEDTAVYYCAAYDYLDYADDYWGQGTQVTVSS,low polyreactivity
21,QVQLVESGGGLVQAGGSLRLSCAASGLTLRYYVMGWNSQAPGKERELVAAISSGGGSTYYADSVKGRFTISRDNAKNTVYLQMNSRKPEDTAVYYCAADSVSRYNGYDYWGQGTQVTVSS,high polyreactivity

row,Sequence,polyreactivity (PSR sort gate)
1,QVQLVESGGGLVQAGGSLRLSCAASGLILYTYAMGCYRQAPGKERELVAAINSGGRTYYADSVKGRFTISRDNAKNTVYLQMNSLKPEDTAVYYCAADYGSRVRGFNYWGQGTQVTVSS,low polyreactivity
2,QVQLVESGGGLVQAGGSLRLSCAASGRIFYFYTMGWYRQAPGKEREFVAAISDSGDGTYYADSVKGRFTISRDNAKNTVYLQMNSLKPEDTAVYYCAADGTLFSEYYWFFGYHDYWGQGTQVTVSS,high polyreactivity
3,QVQLVESGGGLVQAGGSLRLSCAASGSIFEDYTMGWYRQAPGKERELVAAIDWSDASTFYADSVKGRFTISRDNAKNTVYLQMSLKPEDTAVYYCNVAIIFYDDDYWGQGTLVTVSS,high polyreactivity
4,QVQLVESGGGLVQAGGSLRLSCAASGFIFGYNDMGWSRQAPGKERELVAAINSGGSTYYADSVKGRFTISRDNAKNTVYLQMNSLKPDDTAVYYCAADYGYFEFDYWGQGTQVTVSS,low polyreactivity
5,QVQLVESGGGLVQAGGSLRLSCAASGSIFDNNAMGWYRQAPGKERELVAVITRSGGSTHYADSVKGRFTISRDNAKNTVYLQMNSLKPEDTAVYYCATDGLFYVDGSWTLGYWGQGTQVTVSS,low polyreactivity
6,QVQLVESGGGLVQAGGSLRLSCAASGSIFALYAMGWYRQAPGKERELVAAISYRGGRTYYADSVKGRFTISRDNAKNTVYLQMYSLKPEDTAVYNCATDFPGKFDYWGQGTQVTVSS,low polyreactivity
7,QVQLVESGGGLVQAGGSLRLSCAASGLTFGPNAMGWYRQAPGKERELVAAITKSGGSTYYADSVKGRFTISRDNAKNTVYLQMNSLKPEDTAVFYCAARAGYKVFGYWGQGTQVTVSS,high polyreactivity
8,QVQLVESGGGLVQAGGSLRLSCAASGYTFRQYAMGWYRQAPGKERELVAAIRYSGASTYYADSVKGRFTISRDNAKNTVYLQINSLKPEDTAVYYWNAALRLWGEYIYDYWGQGTQVTVSS,low polyreactivity
9,QVQLVESGAGLVQAGGSLRLSCAATGSIVDWYVMGWYRQAPGKERELVAAITSTGSTYYADSVKGRFTISRDNAKNPVYLQMNSLKPEDTAVYYCATSFYVYPTYYIMDYWGQGTQVTVSS,low polyreactivity
10,QVQLVESGGGLVQAGGSLRLSCAASGFTLQPYAMGWYRQAPGKERELVAAISSRGGRTYYADSVKGRFTISRDNAKNTVYLQMNSLKPEDTAVYYCAATGGYVYPRSRLYYYWGQGNQVTVSS,high polyreactivity
11,QVQLVESGGGLVQAGGSLRLSCAASGSTFVIYAMGWYRQAPGKERELVAAITFSGGRTYYADSVKGRFTISRDNAKNTVYLQMNSLKPEDTAVYYCNARHRNLAEYDYWGQGTQVTVSS,low polyreactivity
12,QLQLGESAGGLVQAGGSLRLSCAASGSIFGLNAIGWYIQAPGKERELVAAISSGGSTYYADSVKGRFTISRDNAKNTVYLQMNSLKPEDTAVYYCNAYFQYYDYWGLGTQVTVSS,low polyreactivity
13,QDQLVESGGGLVQAGGSLRLSCADSGYTFTSNDMGWYRQAPGKERELVAAITWSGGTTYYADSVKGRFTISRDNAKNNVYLQMNSLKPDDTAVYYCAAESTLPIIDRDDYWGQGTQVTVSS,low polyreactivity
14,QVQLVESGGGLVQAGGSLRLSCAASGRIFLFYAMGWYRQAPGKESELVAAISVRGGSTYYADSVKGRFTISRDNAKNTVYLQMNSLKPEDTAVYYCAADYPKTYTSKFNYWGQVTQVTVSS,high polyreactivity
15,EEELVESGGGFVQVGGSLRLSCAASGSIFVENAMGWYRQAPGKARELVAAITSGGSTNYADSVKGRFTISRDNAKNTVYLQMNSLKPEDTAVYYCNADENYGYYTHFGYWGQGTQVTVSS,low polyreactivity
16,QVQLVESGGGLVQAGGSLRLSCAASGITFDVNAMGWYRPAPGKERELVAAITAGGNTYYADSVKGRFTISRDNAKNTVYLQMNSLKPEDTAVYYCAAVSTSLYWAGYDYWGQGTQVTVSS,low polyreactivity
17,QVQLVESGGGLVQAGGSLRLSCAASGITFWDYAMGWYRQAPGKERELVAGITSRGGSTYYADSVKGRFTISRDNAKNTVYLQMNSLKPADTGVNSCNAYRLHSRRYYYWGQGTQVTVSS,low polyreactivity
18,QVQLVESGGGLVQAGGSLRLSCAASGSTFDYYAMGWYRQTPGNDRELVAALSWSGGSTYYADSVKGRFTISRDNAKNTVYLQMNSLKPEDTAVYYCATGTYCPRYNYFEGYYWGQGTQVTVSS,high polyreactivity
19,QVQLVESGGGLVQAGGSLRLSCAASGSISVYNAMGWYRQAPGTERELVAAISWSGGRTSYADSVKGRFTISRDNAKNTVYLQMNSLKPEDTAVYYCAADELTVLWDEDYWGQGTQVTVSS,low polyreactivity
20,QVQLVESGGGLVQAGGSLRLSCAASGGIFAANAMGWYRQAPGTERELVAAITSVGSTYADSVKGRFTISRDNAKNTVYLQMNSLKPEDTAVSYCAADTESVIVWYEDDYWGQGTQVTVSS,low polyreactivity
